Laboratory results published in patent US20040023887A1.
Values belong to the binder of their own block, whether it stands above or below them. No end group written: not given here.

Legend:
[1] = target: soluble human insulin receptor-immunoglobulin heavy chain chimera (human) (UniProt P06213); assay: phage ELISA
[2] = target: His-tagged soluble recombinant human IGF-1R (human), P08069; assay: AlphaScreen competition versus IGF-1 (b-hIGF-1, srhIGF-1R-his)
[3] = target: Insulin receptor prepared according to Bass et al., 1996 (soluble IR-immunoglobulin chimera) (human) (UniProt P06213); assay: phage ELISA; IR ratio divided by IGF-1R ratio
[4] = target: Insulin receptor prepared according to Bass et al., 1996 (soluble IR-immunoglobulin chimera) (human) (UniProt P06213); assay: phage ELISA, receptor coated on plate; A405 over non-fat milk
[5] = target: soluble IGF-1R (recombinant human IGF-1R extracellular domain, R&D Systems Cat. # 391-GR/CF) (human), P08069; assay: phage ELISA
[6] = target: soluble human insulin receptor-immunoglobulin heavy chain chimera (human), P06213; assay: phage ELISA

Affin. [2]: 0.19 µM
B2: RP6KK (peptide)
chain: TFYSCLASLLTGTPQPNRGPWERCRKK
modifications: not checked

IR/IGF-1R ratio comparison [1]: 0.1
ratio over background [1]: 2
B5: A6L-0-E3-IR (peptide)
peptide: YRGMLVLGRISGGAGKAASERPARIGQKVSAVNFYDWFV

IR/IGF-1R ratio comparison [1]: 0.1
ratio over background [1]: 1.9
B6: 20E2B-4-F9-IGFR (peptide)
peptide: QPDHSYFYSLLQELVGSEERL

More lines, now with the values behind:

B1: H2CA-4-H9-IGFR (peptide)
peptide: RGAVAGFHDQFYDWFDRQVSRVHKFG
IR/IGF-1R ratio comparison [1]: 0.3
ratio over background [1]: 1.9

B3: B6Hα-1-B5-IR (peptide)
peptide: CCTTEMVVMDARDDPFYHKLSELVTGG
IR/IGF-1R ratio comparison [1]: 0
ratio over background [1]: 1

B4: 20E2Bβ-4-G6-IR (peptide)
peptide: SQAGSAFYAWFDQVLRTVHSA
IR/IGF-1R ratio comparison [1]: 0.3
ratio over background [1]: 1.9

B7: 20E2A-3-A4-IGFR (peptide)
peptide: AGSVTSFYDAMEQLVATGTSA
IR/IGF-1R ratio comparison [3]: 0.7
ratio over background (IR) (fold over background) [4]: 1.8

B8: 20E2B-2-B11-IGFR (peptide)
peptide: VVTPVNFYRALEALVRGXRLG
modifications: not fully specified; printed as VVTPVNFYRALEALVRG.RLG; X: residue not identified in the source
IGF-1R/IR ratio comparison [5]: 9.4
ratio over background [5]: 10.6
IR/IGF-1R ratio comparison [6]: 0.1
ratio over background [6]: 1.1
